Sequences and labels used below:
B1: Protein DOA1 (Saccharomyces cerevisiae), P36037 (parent)
chain: MGYQLSATLKGHDQDVRDVVAVDDSKVASVSRDGTVRLWSKDDQWLGTVVYTGQGFLNSVCYDSEKELLLFGGKDTMINGVPLFATSGEDPLYTLIGHQGNVCSLSFQDGVVISGSWDKTAKVWKEGSLVYNLQAHNASVWDAKVVSFSENKFLTASADKTIKLWQNDKVIKTFSGIHNDVVRHLAVVDDGHFISCSNDGLIKLVDMHTGDVLRTYEGHESFVYCIKLLPNGDIVSCGEDRTVRIWSKENGSLKQVITLPAISIWSVDCMSNGDIIVGSSDNLVRIFSQEKSRWASEDEINELSTQVEKSTISSKTIEFDESKLSPYEILQSPGRKEGQIVVVKSPQGTIEAHQFSNSSWKKVGDVVGAGATGNDKKIEFEGKTYDYVFDVDIEDGKPPLKLPINVSDNPYTAADNFLARYELPMSYRDQVVQFILKNTNGISLDQPNDNASSSAVSPSKTSVMKVLPVKQYLIMENYNPDTIFNGIVKINSNEKTFDDEILAQIGGALHDIDESWELLLSFANTIRSNWEIKTPAYDIVRLIVKKLPYSSDIKDYIEEGLGNKNITLTMLTVRILVNCFNNENWGVKLLESNQVYKSIFETIDTEFSQASAKQSQNLAIAVSTLIFNYSALVTKGNSDLELLPIVADAINTKYGPLEEYQECEEAAYRLTVAYGNLATVEPTLRQFANSVTWLANIKRSYGNVPRFKDIFDDLS

The variants in one assay derive from B1. The settings on record: with cdc48_yeast CDC48, P25694.
Chain of cdc48_yeast CDC48, P25694 (P25694 whole entry): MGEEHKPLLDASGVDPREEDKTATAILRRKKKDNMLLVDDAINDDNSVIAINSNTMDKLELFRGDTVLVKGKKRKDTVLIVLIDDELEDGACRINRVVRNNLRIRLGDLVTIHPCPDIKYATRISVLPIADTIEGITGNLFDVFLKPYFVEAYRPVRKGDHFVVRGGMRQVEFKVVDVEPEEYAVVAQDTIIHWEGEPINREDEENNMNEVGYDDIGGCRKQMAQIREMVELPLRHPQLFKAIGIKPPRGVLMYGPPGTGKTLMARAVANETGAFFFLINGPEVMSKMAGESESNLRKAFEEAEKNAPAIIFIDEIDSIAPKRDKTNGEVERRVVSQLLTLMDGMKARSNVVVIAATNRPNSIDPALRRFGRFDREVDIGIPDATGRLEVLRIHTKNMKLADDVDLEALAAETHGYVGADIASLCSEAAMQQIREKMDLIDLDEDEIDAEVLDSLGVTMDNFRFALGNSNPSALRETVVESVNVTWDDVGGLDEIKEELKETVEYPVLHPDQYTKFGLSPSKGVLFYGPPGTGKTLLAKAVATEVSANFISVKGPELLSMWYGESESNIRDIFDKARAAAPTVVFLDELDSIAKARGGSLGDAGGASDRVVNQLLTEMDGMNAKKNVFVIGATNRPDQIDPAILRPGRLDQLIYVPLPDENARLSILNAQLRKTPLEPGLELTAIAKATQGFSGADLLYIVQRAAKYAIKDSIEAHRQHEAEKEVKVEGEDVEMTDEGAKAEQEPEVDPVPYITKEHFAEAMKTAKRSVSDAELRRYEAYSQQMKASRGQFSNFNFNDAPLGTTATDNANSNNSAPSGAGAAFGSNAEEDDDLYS
For the variant R669A, the “effect of a mutation on the interaction” value is given as “decreasing interaction”.

In the case of N578A, the “effect of a mutation on the interaction” value was “decreasing interaction”.

In the case of R541A, the “effect of a mutation on the interaction” value is given as “disrupting interaction”.

The variants in a further assay derive from B1. Particulars: with cdc48_yeast CDC48, P25694. The source holds these as a separate data set.
Regarding R541A;R669A, the “effect of a mutation on the interaction” value is listed as “disrupting interaction”.

The record behind these values is IntAct's records for PubMed 19805280.
